Measurements as given in patent US20220010006A1 (BEIJING HANMI PHARMACEUTICAL, published 2022).
Each block holds one molecule with its values, some of them ahead of it.

Key:
[1] = biological target: transmembrane TNFα on Jurkat/tmTNFα cells; assay: cell-based or functional assay
mouse IL-17A = biological target: T1, mouse IL-17A (mouse, UniProt Q62386 26-158); assay: ELISA, plate-coated antigen 1 µg/mL, anti-human IgG-HRP
T1 construct: also called recombinant mouse IL-17A
T1 sequence (looked up): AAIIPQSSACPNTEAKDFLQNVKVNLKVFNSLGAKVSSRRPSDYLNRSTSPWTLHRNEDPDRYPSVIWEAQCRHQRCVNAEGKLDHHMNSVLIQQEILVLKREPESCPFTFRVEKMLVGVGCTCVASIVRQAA
Description: (§1) Detailed procedures are as follows: the recombinant mouse TNFα, rat TNFα, mouse IL-17A and rat IL-17A (all purchased from Sino Biological, P. R. China) were coated on wells of a 96-well high-adsorption ELISA plate using a carbonate buffer solution of pH 9.6 at a coating concentration of 1 μg/mL and in a coating amount of 100 μL per well. The coating was performed at 4° C. overnight. The wells were washed with PBST 5 times. The wells were blocked with 300 μL per well of PBST containing 1% BSA, and incubated for 1 hour at 25° C., and washed with PBST 5 times. […] The wells were washed with PBST 5 times. Then, horseradish peroxidase-labeled anti-human IgG antibody (Chemicon, cat #AP 309P) 1:10000 diluted in PBST containing 1% BSA was added in an amount of 100 μL per well, and incubated at 25° C. for 1 hour. The wells were washed with PBST 5 times. The chromogenic substrate TMB was added in an amount of 100 μL per well, and color developed at room temperature for 10 minutes. Color development was terminated by adding 1M H₂SO₄ in an amount of 100 μL per well. The absorbance at 450 nm was read on a microplate reader.

rat IL-17A = biological target: T2, rat IL-17A (rat, UniProt Q61453 18-150, limits assumed); assay: as above
T2 construct: also called recombinant rat IL-17A
T2 sequence (looked up): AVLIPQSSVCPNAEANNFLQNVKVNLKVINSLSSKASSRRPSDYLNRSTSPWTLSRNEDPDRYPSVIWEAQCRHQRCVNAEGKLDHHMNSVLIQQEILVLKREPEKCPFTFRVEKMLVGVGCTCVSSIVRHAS
Description: as §1

- Apoptosis ratio (%) of Jurkat/tmTNFα cells, Enbrel 1 µg/mL [1]: 19%
- Apoptosis ratio (%) of Jurkat/tmTNFα cells, Enbrel 10 µg/mL [1]: 21%
Molecule: Enbrel® (Fc fusion)

- Apoptosis ratio (%) of Jurkat/tmTNFα cells, Humira 1 µg/mL [1]: 29.9%
- Apoptosis ratio (%) of Jurkat/tmTNFα cells, Humira 10 µg/mL [1]: 28.2%
Molecule: Humira® (antibody)

- EC50 (mouse IL-17A): 0.027 nM
- EC50 (rat IL-17A): 0.032 nM
B1: anti-mouse IL-17A monoclonal antibody (1D10 variable regions) (antibody, V domains shown)
VH: QVQLKESGPGLVQPSQTLSLTCTVSGFSLTNYYVHWVRQPPGKGLEWMGGVWNDGDTSYNSVLRSRLSITRDTSKSQVLLKMSSLQTEDTATYYCAREGREGFVGYYVMDAWGPGASVTVSS
VL: DIQMTQSPSFLSASVGERVTLSCKASQNINKYLDWFQQKLGEAPKLLIYNADNLHTGIPSRFSGSGSFSDFILTISSLQPEDDATYFCLQRESWPYTFGAGTKLELK
notes: Parental control of BH1654; variable regions from U.S. Pat. No. 7,846,443, 1D10; also called The anti-mouse IL-17A monoclonal antibody; anti-mouse IL-17A mAb
